B1: YGL153W_2 (protein, UniProt P53112 2-341, looked up)
Peroxisomal membrane protein …: SDVVSKDRKALFDSAVSFLKDESIKDAPLLKKIEFLKSKGLTEKEIEIAMKEPKKDGIVGDEVSKKIGSTENRASQDMYLYEAMPPTLPHRDWKDYFVMATATAGLLYGAYEVTRRYVIPNILPEAKSKLEGDKKEIDDQFSKIDTVLNAIEAEQAEFRKKESETLKELSDTIAELKQALVQTTRSREKIEDEFRIVKLEVVNMQNTIDKFVSDNDGMQELNNIQKEMESLKSLMNNRMESGNAQDNRLFSISPNGIPGIDTIPSASEILAKMGMQEESDKEKENGSDANKDDNAVPAWKKAREQTIDSNASIPEWQKNTAANEISVPDWQNGQVEDSIP
B2: YDR379W_2 (protein, UniProt Q06407 1-1009, looked up)
Rho-type GTPase-activating …: MSADPINDQSSLCVRCNKSIASSQVYELESKKWHDQCFTCYKCDKKLNADSDFLVLDIGTLICYDCSDKCTNCGDKIDDTAIILPSSNEAYCSNCFRCCRCSNRIKNLKYAKTKRGLCCMDCHEKLLRKKQLLLENQTKNSSKEDFPIKLPERSVKRPLSPTRINGKSDVSTNNTAISKNLVSSNEDQQLTPQVLVSQERDESSLNDNNDNDNSKDREETSSHARTVSIDDILNSTLEHDSNSIEEQSLVDNEDYINKMGEDVTYRLLKPQRANRDSIVVKDPRIPNSNSNANRFFSIYDKEETDKDDTDNKENEIIVNTPRNSTDKITSPLNSPMAVQMNEEVEPPHGLALTLSEATKENNKSSQGIQTSTSKSMNHVSPITRTDTVEMKTSTSSSTLRLSDNGSFSRPQTADNLLPHKKVAPSPNKKLSRSFSLKSKNFVHNLKSKTSEMLDPKHPHHSTSIQESDTHSGWGVSSTHTNIRKSKAKKNPVSRGQSDSTIYNTLPQHGNFTVPEFNHKKAQSSLGSISKKQNSNDTATNRRINGSFTSSSSGHHIAMFRTPPLESGPLFKRPSLSSESAHHRSSSLQTSRSTNALLEDDSTKVDATDESATSLEKDFYFTELTLRKLKLDVRELEGTKKKLLQDVENLRLAKERLLNDVDNLTREKDKQSASSRESLEQKENIATSITVKSPSSNSDRKGSISNASPKPRFWKIFSSAKDHQVGDLESQQRSPNSSSGGTTNIAQKEISSPKLIRVHDELPSPGKVPLSPSPKRLDYTPDGSHLYGSSLQARCAYEKSTVPIIIRCCIDRIEKDDIGLNMEGLYRKSGSQTLVEEIENEFAQNNSLHSDTLSPKLNALLNQDIHAVASVLKRYLRKLPDPVLSFSIYDALIDLVRNNQLIERLPLNNDKFLDSPQKVTIYEMVLKSLLEIFKILPVEHQEVLKVLAAHIGKVRRCSERNLMNLHNLSLVFAPSLIHDFDGEKDIVDMKERNYIVEFILGNYRDIFKQA
B3: YDR329C_2 (protein, UniProt P28795 1-441, looked up)
Peroxisomal biogenesis factor …: MAPNQRSRSLLQRHRGKVLISLTGIAALFTTGSVVVFFVKRWLYKQQLRITEQHFIKEQIKRRFEQTQEDSLYTIYELLPVWRMVLNENDLNLDSIVTQLKDQKNQLTRAKSSESRESSPLKSKAELWNELELKSLIKLVTVTYTVSSLILLTRLQLNILTRNEYLDSAIKLTMQQENCNKLQNRFYNWVTSWWSDPEDKADDAMVMAAKKSKKEGQEVYINEQAFLSLSWWILNKGWLSYNEIITNQIEIEFDGIHPRDTLTLEEFSSRLTNIFRNTNSQIFQQNNNNLTSILLPKDSSGQEFLLSQTLDADALTSFHSNTLVFNQLVNELTQCIESTATSIVLESLINESFHFIMNKVGIKTIAKKKPGQEDQQQYQMAVFAMSMKDCCQEMLQTTAGSSHSGSVNEYLATLDSVQPLDDLSASVYSNFGVSSSFSFKP
B4: YKR082W_1 (protein, UniProt P36161 2-1157, looked up)
Nucleoporin NUP133: SEKKVHLRLRKELSVPIAVVENESLAQLSYEEESQASLMDISMEQQQLRLHSHFDNSKVFTENNRYIVKTLQTDYSSGFSNDDELNGYIDMQIGYGLVNDHKKVYIWNIHSTQKDTPYITVPFRSDDNDEIAVAPRCILTFPATMDESPLALNPNDQDETGGLIIIKGSKAIYYEDINSINNLNFKLSEKFSHELELPINSSGGEKCDLMLNCEPAGIVLSTNMGRIFFITIRNSMGKPQLKLGKLLNKPFKLGIWSKIFNTNSSVVSLRNGPILGKGTRLVYITTNKGIFQTWQLSATNSHPTKLIDVNIYEAILESLQDLYPFAHGTLKIWDSHPLQDESSQLFLSSIYDSSCNETYYILSTIIFDSSSNSFTIFSTYRLNTFMESITDTKFKPKIFIPQMENANDTNEVTSILVMFPNAVVITQVNSKLDSSYSMRRKWEDIVSLRNDIDIIGSGYDSKSLYVLTKQMGVLQFFVKENEETNSKPEVGFVKSHVDQAVYFSKINANPIDFNLPPEISLDQESIEHDLKLTSEEIFHSNGKYIPPMLNTLGQHLSVRKEFFQNFLTFVAKNFNYKISPELKLDLIEKFEILNCCIKFNSIIRQSDVLNDIWEKTLSNYNLTQNEHLTTKTVVINSPDVFPVIFKQFLNHVVFVLFPSQNQNFKLNVTNLINLCFYDGILEEGEKTIRYELLELDPMEVDTSKLPWFINFDYLNCINQCFFDFTFACEEEGSLDSYKEGLLKIVKILYYQFNQFKIWINTQPVKSVNANDNFININNLYDDNHLDWNHVLCKVNLKEQCIQIAEFYKDLSGLVQTLQTLDQNDSTTVSLYETFFNEFPKEFSFTLFEYLIKHKKLNDLIFRFPQQHDVLIQFFQESAPKYGHVAWIQQILDGSYADAMNTLKNITVDDSKKGESLSECELHLNVAKLSSLLVEKDNLDINTLRKIQYNLDTIDAEKNISNKLKKGEVQICKRFKNGSIREVFNILVEELKSTTVVNLSDLVELYSMLDDEESLFIPLRLLSVDGNLLNFEVKKFLNALVWRRIVLLNASNEGDKLLQHIVKRVFDEELPKNNDFPLPSVDLLCDKSLLTPEYISETYGRFPIDQNAIREEIYEEISQVETLNSDNSLEIKLHSTIGSVAKEKNYTINYETNTVEY
B5: YDL160C_1 (protein, UniProt P39517 1-506, looked up)
ATP-dependent RNA helicase …: MGSINNNFNTNNNSNTDLDRDWKTALNIPKKDTRPQTDDVLNTKGNTFEDFYLKRELLMGIFEAGFEKPSPIQEEAIPVAITGRDILARAKNGTGKTAAFVIPTLEKVKPKLNKIQALIMVPTRELALQTSQVVRTLGKHCGISCMVTTGGTNLRDDILRLNETVHILVGTPGRVLDLASRKVADLSDCSLFIMDEADKMLSRDFKTIIEQILSFLPPTHQSLLFSATFPLTVKEFMVKHLHKPYEINLMEELTLKGITQYYAFVEERQKLHCLNTLFSKLQINQAIIFCNSTNRVELLAKKITDLGYSCYYSHARMKQQERNKVFHEFRQGKVRTLVCSDLLTRGIDIQAVNVVINFDFPKTAETYLHRIGRSGRFGHLGLAINLINWNDRFNLYKIEQELGTEIAAIPATIDKSLYVAENDETVPVPFPIEQQSYHQQAIPQQQLPSQQQFAIPPQQHHPQFMVPPSHQQQQAYPPPQMPSQQGYPPQQEHFMAMPPGQSQPQY
B6: YGL060W_1 (protein, UniProt P53169 1-641, looked up)
YAP1-binding protein 2: MYNEQVNSGKSIKEKERYLDALLKILKDNPVTLKEIGWDLPKGLLQFFSRKNINVNIHLVFSPLVSSVMECFNELAINGNPKECLLTACELVSTLHIVLTETGDSDEENEDLNDSNRNDASNITDELSVITPEIGHYMAKNTVEFIPNLKIYVLFEFMSLLLKRVDTLYPSKFLAMVTSAIIKYVTTNVQAMDDPHFILRIVYNFCTNYSPAQPSASLTDGISTNDLEKIHDDESALQKKLLANLSVFVISNCLKNHPGNIDKIYFKTLMHKKTDENEIDASVLQICHQYYEYVTSLDVHMKELLEKCLVESRSIYNSLLMNPAASTPEFKEEINQLVYEVSYAYQIKKLADEKNLELDQYGVVILSAIHYSKNGTHLLPQIDIQSAIYLYLRCTTASLFSEIYENKFLESSVRYWLWVSTTETSTEKIKCALQELPGHITTAFLQMLLMKTCNESNNDTKLTEITLLRRLLYLMPESTSFTFIFETLLHCPYITAKIAVLDILRDMMIRSPEAANRDETVGLIEQQNPGNTANSVPIMPTLPPRPYITINEDRMASIHSIALICFSAAKQKKRTQGDLLLVLTYMKFFVSLRNKWDLGLLTLINKEISESFQGEGEPELAFINISNNTLGEYIEEMNIRS

Tested on: PPIs identified as affected by the SH3 domain deletions
Experiment: Liquid DHFR-PCA low-throughput validation of PPIs affected by SH3 deletion (Fig. S1D-E)
Type: cell-based, Saccharomyces cerevisiae
Conditions: label = prey, liquid DHFR-PCA, prey _1 = lost, _2 = gained in screen
How it was run: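 Yeast diploids from DHFR-PCA mating grown 48 h in synthetic complete MSG medium pH 6.0 with NAT and HPH, normalized to 1 OD and diluted to 0.1 OD in liquid PCA selection medium. Growth followed by OD every 15 min for 72 h at 30 °C.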

| Molecule | Ratio (Deletedscore / WTscore) (bait BEM1-1) | Ratio (Deletedscore / WTscore) (bait RVS167) | other results |
| --- | --- | --- | --- |
| B1 | 1.295 |  |  |
| B2 |  |  | Ratio (Deletedscore / WTscore) (bait BOI1): 0.9152 |
| B3 | 1.085 |  |  |
| B4 |  | 0.6329 |  |
| B5 |  | 0.8286 |  |
| B6 |  | 0.4505 |  |
